From article PMC3914025 (Nature, 2013)

Target: the molecule itself
Experiment: crystal structure

B1: NapA from Thermus thermophilus, triple cysteine mutant (Met20, Val166, Val326 to cysteine) (natural protein)
chain: MHGAEHLLEIFYLLLAAQVCAFIFKRLNQPVVIGEVLAGVLVGPALLGLVHEGEILEFLAELGAVFLLFMVGLETRLKDILAVGKEAFLVAVLGVALPFLGGYLYGLEIGFETLPALFLGTALVATSVGITARVLQELGVLSRPYSRIILGAAVIDDVLGLIVLACVNGVAETGQVEVGAITRLIVLSVVFVGLAVFLSTLIARLPLERLPVGSPLGFALALGVGMAALAASIGLAPIVGAFLGGMLLSEVREKYRLEEPIFAIESFLAPIFFAMVGVRLELSALASPVVLVAGTVVTVIAILGKVLGGFLGALTQGVRSALTVGCGMAPRGEVGLIVAALGLKAGAVNEEEYAIVLFMVVFTTLFAPFALKPLIAWTERERAAKEGSENLYFQ
- binding result: binds
